Experimental data reported in the DeepSol protein solubility set.

assay: soluble on expression in E. coli; label from the status in PepcDB or PDB records

| Sequence | soluble on expression in E. coli |
| --- | --- |
| GAMGSGDTQLFNRAVSMVEKNKDIRSLLQCDDGITGKERLKAYGELITNDKWTRNRPIVSTKKLDKEGRTHHYMRFHVESKKKIALVHLEAKESKQNYQPDFINMYVDVPGEKRYYLIKPKLHPVSN | soluble |
| MGHHHHHHSHMSSPSRKRTIAESKKKHEEKQMKAQQLREKLREEKTLKLQKLLEREKDVRKWKEELLDQRRRMMEEKLLHAEFKREVQLQAIVKKAQEEEAKVNEIAFINTLEAQNKRHDVLSKLKEYEQRLNELQEERQRRQEEKQARDEAVQERKRALEAERQAR | soluble |
| MINPIASLSPLDGRYAQSVEALRPIFSEYGLMKARVKVELNWLKALAAEPKIAEVPPFSAETLAEIDTVIENFSLEDAAAVKAIEATTNHDVKAIEYWLKKRFAEVPEVAAVSEFIHFACTSEDINNLSHALMLQEAREAVLLPKLAEIIEKLTAMAHDLAAVPMMSRTHGQPATPTTLGKETANVVYRLQRQFKNLQAQEFLGKINGAVGNYNAHMVAYPDVDWETHCRNFVEISLGLTFNPYTIQIEPHDYMAEFFQTLSRINTILIDFNRDVWGYISLGYFKQKVKAGEVGSSTMPHKVNPIDFENSEGNLGMANAVLGFLSEKLPISRWQRDLTDSTVLRNMGVGVGYAVLGFAAHLRGLNKLEPNPAALAADLDATWELLAEPIQTVMRRYGVANPYEKLKDLTRGKGGITPEVLKGFIGLLEIPAEAKAKLLELTPALYVGKAEALAKRI | not soluble |
| MDLFPDEVYVFTPKGHIMELPKGATPVDFAYTVHSGVGNSCVAAKVNRRLVPLSIPLSNGQTVEIITAPGAHPNPAWLEHHHHHH | not soluble |
| MAHHHHHHMQMRRDALGNGKALEFAKELSLAYKQVIQATQHIGKQRQALTGCTDLSVKTREWAAAEHDIAGALEKYGAAPYWVEQRGWRPGRLQSFEAAHSRASSGTEVSYLCSRLRGYVKAAFTAHVTKPPKLNASEVDVAELLTFFTGSGDGALVVEVALAKFFVVENMHVRAPELWVMNYLLHCYGVEEGIMLAHEADVVDGGFKQQGGGAFEEQFLIQKNIWAVSQVLVPHCYAVTRCDEATAKAGVEACVRCEGTEGQGTEGAFPTWPGTPPASLPPAYRLARSVNDYGKEAGEDKTSRIIGELDGVIYDASARQVLLVLEAKQNIDVCKAFKQKERLYNALDATRKTLSQASQGAALTAVQLSAENETKTATTTAAGRNATPAAEAACAASTKLHTEPVVLRFFVTPTTAAEAARENFSVNGCSLVTGVGAEPAANFQDMRNSGDMASAAAPPVRSKAAAARLATAGNPFFTQDNFAAFFGATASAVQGDSTAPSPTPTRSDSMTPRHLGRDQRWIYLTSLSTGNSPGARTTVPAPGGTIHMVELTLVKTACNFVAEAYDSYFQISTLPPTATPALQSLVSAMRVCSAYAPETEPMALFHLFLELPPQECISARAETAAVSRSDPCEYVLHLFRHDVRCKDGAAALEQVWLRENFIDGLVLSEHSFI | not soluble |
| MILKTTLELVIDVKNNEKKIRTHSWKTKKIPPKKGEVSGQKLMVEKKSSKIFIENLKCQGNSAKNIFVFHLDLLHIKKLKNLNISMSSTDPILDISFDKPVYYPGDNMKLTVSVDTKRPLNARSVMFRCRGFRNRTVSFLNKYGIAWICKDGKNELPVGRLEQKFQFELGKDCPPTYKDGKIIYKVRLEIDQPWSRPLFIEKEFKMVHKLADQKMSQVMTYTSSPRFDALFSNGQPTFKVTMPKFTLYPGETTEFKLEVENHSSSTVKKIYAELEAEPFPLYHIYGNTKAKGKMHVLVAPYSTQKFTIPFTIPTDLTASFHTCGSSLKYTMKFGLVTDSWLTTDPALALVVSIGELESEEKKDEALKTPPPPPYTA | not soluble |
| MPQPEQLPGPNADIWNWQLQGLCRGMDSSMFFHPDGERGRARTQREQRAKEMCRRCPVIEACRSHALEVGEPYGVWGGLSESERDLLLKGTMGRTRGIRRTA | not soluble |
| MIYIGLPQWSHPKWVRLGITSLEEYARHFNCVEGNTTLYALPKPEVVLRWREQTTDDFRFCFKFPATISHQAALRHCDDLVTEFLTRMSPLAPRIGQYWLQLPATFGPRELPALWHFLDSLPGEFNYGVEVRHPQFFAKGEEEQTLNRGLHQRGVNQVILDSRPVHAARPHSEAIRDAQRKKPKVPVHAVLTATNPLIRFIGSDDMTQNRELFQVWLQKLAQWHQTTTPYLFLHTPDIAQAPELVHTLWEDLRKTLPEIGAVPAIPQQSSLF | soluble |
| MRQRYLALLSLFASLPAMAISFQTRLESIEWKVEGDQFECRLTQPITDFGAGEFVRRAGEQATFRLKASYNMLGNGSATLLAAAAPWQPGRGDINLGSVRVSNGDIPFNTSQAQAGRLISGLMDGRSPLIRHYNRDGGQMEVRLLPVKFSKAFSDYQACTAKLLPMNFDQVKQAEVGFPGGGIELDANAKARLDNMVAYLKADPTVNRIELDGHSDNSGNRLTNRDLSRRRALAVMDYFKAQGIPEQQITLRFHGERYPLAPNTNNANRARNRRVNVHLERVAPDERPVPVASSASAAHTS | not soluble |
| GSVSPTFQVVNSFAPVQECSTQLDIVIVLDGSNSIYPWESVIAFLNDLLKRMDIGPKQTQVGIVQYGENVTHEFNLNKYSSTEEVLVAANKIVQRGGRQTMTALGIDTARKEAFTEARGARRGVKKVMVIVTDGESHDNYRLKQVIQDCEDENIQRFSIAILGHYNRGNLSTEKFVEEIKSIASEPTEKHFFNVSDELALVTIVKALGERIFALEALERPHRD | soluble |
| GPGSMPKSKRATIVPLTKTRSKTREEKDELINKIRDALDDYTDVYTFELSNIRTNILQQIREERRNDSRLFLGNNKLLMIALGRDDSSSQRPNLHKLSKYLTGSCGLLFTNLPHQDVKEYFKGVSADVFARTGQVATCPLLLRTGPLAQFPHSMFDHLSRLGLPIKLDKGVIVLLRDTTVCEVGDTLTAEAAQLLKLFGIQSAEFKLELTAHWAKGVVKRMSKKKKEEEN | soluble |
| MKKKNVVVFGGGTGLSVLLRGLKTFPVSITAIVTVADDGGSSGRLRKELDIPPPGDVRNVLVALSEVEPLLEQLFQHRFENGNGLSGHSLGNLLLAGMTSITGDFARGISEMSKVLNVRGKVLPASNRSIILHGEMEDGTIVTGESSIPKAGKKIKRVFLTPKDTKPLREGLEAIRKADVIVIGPGSLYTSVLPNLLVPGICEAIKQSTARKVYICNVMTQNGETDGYTASDHLQAIMDHCGVGIVDDILVHGEPISDTVKAKYAKEKAEPVIVDEHKLKALGVGTISDYFVLEQDDVLRHNASKVSEAILEGKPRTSSSIQAAALEHHHHHH | soluble |
| HFASTRSFLDTVKLDHAIWKNNIYRLLQSGSFGETVNSHSECRLGQWYYRGDGKAYSQLRSYAQLEAPHKGVHDSGRDAMNHAKSGNMAGMVTSINSMEDTSEQVVIHIDRLMDEIIAN | not soluble |
| MGSDKIHHHHHHVQESREFILEIAQLNKTYSGNRVLNNINFDLKLGEVHALVGENGAGKSTLIKIIAGVEKPDPGAEILFGGCPAINLNPSKSVQMGISVIYQDISLFPNLSVAENICIGGQKGLFIKWKQVFETARSALIKLGAIDIDPHVPLGEISIGQRQMVALARALTHEARVIIMDEPTSSLSANEIKALYSAIQILKNENKSLIYISHKFEEVFEVADRISVLRDGEMIASKAAWEFDEQSLISMMVGREIRFLPMRNDGVAGKKLLEVRGLTKEPLFRNISFSLYENEILGITGLVGAGRSEMAQTLFGLEKADKGRIFMGEKELSIKSAVDAIKSGICYLPEDRRGQGIFLIQSMARNITTAKLESILNRCRLLSRPKEMAVSEYYMDRLNIKPRLPDISADKMSGGNQQKLLFSRWLNARPQILIADEPSSGIDVATKAEIHGLLRELAASGVGVILISSDLPETLAVCDRILVMRNGNIVDQTSSKESSQEELIRKGLMG | not soluble |
| ADRNLRDLLAPWVPDAPSRALREMTLDSRVAAAGDLFVAVVGHQADGRRYIPQAIAQGVAAIIAEAKDEATDGEIREMHGVPVIYLSQLNERLSALAGRFYHEPSDNLRLVGVTGTNGKTTTTQLLAQWSQLLGEISAVMGTVGNGLLGKVIPTENTTGSAVDVQHELAGLVDQGATFCAMEVSSHGLVQHRVAALKFAASVFTNLSRDHLDYHGDMEHYEAAKWLLYSEHHCGQAIINADDEVGRRWLAKLPDAVAVSMEDHINPNCHGRWLKATEVNYHDSGATIRFSSSWGDGEIESHLMGAFNVSNLLLALATLLALGYPLADLLKTAARLQPVCGRMEVFTAPGKPTVVVDYAHTPDALEKALQAARLHCAGKLWCVFGCGGDRDKGKRPLMGAIAEEFADVAVVTDDNPRTEEPRAIINDILAGMLDAGHAKVMEGRAEAVTCAVMQAKENDVVLVAGKGHEDYQIVGNQRLDYSDRVTVARLLGVIARSHH | soluble |
